Consider 1 molecule from patent US6399326 (Harvard, dated 2002).

For test [1], the target named is T1, PTP-NP extracellular domain marked with an immunoglobulin tag (mouse, UniProt P80560 28-600).
T1 construct: not shown: immunoglobulin tag
T1 chain: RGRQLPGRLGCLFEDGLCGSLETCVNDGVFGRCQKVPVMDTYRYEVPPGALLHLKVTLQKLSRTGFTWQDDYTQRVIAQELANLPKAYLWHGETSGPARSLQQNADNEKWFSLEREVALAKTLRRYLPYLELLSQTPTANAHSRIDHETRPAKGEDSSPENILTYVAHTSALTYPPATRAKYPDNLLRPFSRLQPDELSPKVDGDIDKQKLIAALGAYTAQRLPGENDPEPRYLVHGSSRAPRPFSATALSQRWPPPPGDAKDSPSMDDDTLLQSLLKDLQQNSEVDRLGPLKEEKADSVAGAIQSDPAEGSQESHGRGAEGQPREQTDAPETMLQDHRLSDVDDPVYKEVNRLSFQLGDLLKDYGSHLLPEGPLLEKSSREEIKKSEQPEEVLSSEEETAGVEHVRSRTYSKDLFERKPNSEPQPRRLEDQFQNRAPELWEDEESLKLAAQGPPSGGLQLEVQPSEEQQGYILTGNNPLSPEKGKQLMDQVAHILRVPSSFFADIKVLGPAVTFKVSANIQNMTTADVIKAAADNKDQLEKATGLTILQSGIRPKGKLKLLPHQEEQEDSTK
Nature of the test: in vitro binding of the two differently tagged extracellular domains (data not shown).

Test [2] concerns the target T2, PTP-NP (on cells transfected with PTP-NP) (mouse, UniProt P80560 28-1001).
T2 construct: also called PTP-NP type 1; neural and pancreatic receptor protein tyrosine phosphatase
T2 chain: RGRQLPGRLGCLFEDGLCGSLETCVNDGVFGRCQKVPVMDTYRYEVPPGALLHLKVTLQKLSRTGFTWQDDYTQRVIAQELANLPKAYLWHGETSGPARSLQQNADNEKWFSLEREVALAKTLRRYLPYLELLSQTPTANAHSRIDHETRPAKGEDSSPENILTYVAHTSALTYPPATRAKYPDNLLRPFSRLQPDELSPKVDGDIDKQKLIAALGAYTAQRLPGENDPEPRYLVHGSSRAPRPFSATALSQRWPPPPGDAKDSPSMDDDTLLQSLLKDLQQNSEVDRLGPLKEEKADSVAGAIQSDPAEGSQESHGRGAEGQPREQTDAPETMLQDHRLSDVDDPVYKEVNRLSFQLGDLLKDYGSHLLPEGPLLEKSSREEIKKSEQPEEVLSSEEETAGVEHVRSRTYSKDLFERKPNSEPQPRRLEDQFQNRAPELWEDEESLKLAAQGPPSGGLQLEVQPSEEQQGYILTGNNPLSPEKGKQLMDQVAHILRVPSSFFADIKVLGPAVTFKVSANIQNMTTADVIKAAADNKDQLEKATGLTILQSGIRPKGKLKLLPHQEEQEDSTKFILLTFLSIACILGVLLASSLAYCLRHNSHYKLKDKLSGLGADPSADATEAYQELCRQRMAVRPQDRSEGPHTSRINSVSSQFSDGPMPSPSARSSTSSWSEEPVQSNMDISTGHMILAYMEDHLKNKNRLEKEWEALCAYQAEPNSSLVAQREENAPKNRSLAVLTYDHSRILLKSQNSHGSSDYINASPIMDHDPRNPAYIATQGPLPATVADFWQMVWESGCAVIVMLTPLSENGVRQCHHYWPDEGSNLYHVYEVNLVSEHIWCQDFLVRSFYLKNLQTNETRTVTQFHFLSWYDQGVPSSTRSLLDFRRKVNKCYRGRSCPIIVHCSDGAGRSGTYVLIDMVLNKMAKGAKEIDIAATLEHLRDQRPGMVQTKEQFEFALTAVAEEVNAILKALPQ
As to the kind of experiment: NP-AP probe on cells transfected with PTP-NP (data not shown).

B1: NP-AP fusion protein (extracellular domain of PTP-NP fused to an alkaline phosphatase tag) (other)
chain: T1 chain
notes: Used as unpurified supernatant of transfected COS cells; also called NP-AP probe; not shown: limits and
For B1, the binding result in test [1] and in test [2] was “no binding” throughout.
